In patent US20130115635A1 (VIB VZW, published 2013):

Key:
α-synuclein [1] = molecular target: T1, α-synuclein (UniProt P37840 1-140); assay: ITC, 293.1 K
α-synuclein [2] = molecular target: T1, α-synuclein; assay: ITC, 298.1 K
α-synuclein [3] = molecular target: T1, α-synuclein; assay: ITC, 303.1 K
α-synuclein [4] = molecular target: T1, α-synuclein; assay: ITC, 310.1 K
Nb458-… (CA2944) = assay: affinity capture on NbSyn2 sepharose, elution with 1 M NaCl, SDS-PAGE
Nb458-gaaEPEA (CA2945) [5] = molecular target: T2, Nb458-gaaEPEA (CA2945); assay: as above
T2 construct: also called Nb458 tagged with the gaaEPEA tag

α-synuclein [6] = molecular target: T1, α-synuclein; assay: 15N-1H HSQC NMR titration
β-synuclein = molecular target: T3, β-synuclein (UniProt Q16143 1-134); assay: phage display panning on immobilised antigen
T3 construct: also called beta-synuclein

Nb458-gaaEPEA (CA2945) [7] = molecular target: T2, Nb458-gaaEPEA (CA2945); assay: ELISA: Nb458-gaaEPEA coated at 0.1 or 0.01 µg/well, detected with biNbSyn2 alkaline phosphatase conjugate at dilutions 1/250 to 1/4000, OD405 after 60 minutes
α-synuclein [8] = molecular target: T1, α-synuclein; assay: phage display panning on immobilised antigen
Rev-[…] = molecular target: T4, Rev-[…] (HIV); assay: colocalisation in double-transfected HeLa cells, confocal microscopy
T4 construct: also called HIV-Rev-EPEA

T3 sequence (Q16143 whole entry): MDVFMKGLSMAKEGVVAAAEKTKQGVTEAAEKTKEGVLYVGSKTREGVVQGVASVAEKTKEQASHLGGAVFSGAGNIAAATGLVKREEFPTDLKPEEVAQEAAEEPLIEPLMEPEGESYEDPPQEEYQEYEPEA
T2 sequence (VHH, as listed by the source): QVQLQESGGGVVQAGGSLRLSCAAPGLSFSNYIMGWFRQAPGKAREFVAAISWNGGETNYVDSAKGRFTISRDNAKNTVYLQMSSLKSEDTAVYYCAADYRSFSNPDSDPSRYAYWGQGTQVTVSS

B1: NbSyn2 (VHH)
VHH: QGQLVESGGGSVQAGGSLRLSCAASGIDSSSYCMGWFRQRPGKEREGVARINGLGGVKTAYADSVKDRFTISRDNAENTVYLQMNSLKPEDTAIYYCAAKFSPGYCGGSWSNFGYWGQGTQVTVSS
notes: also called His-tagged NbSyn2; NbSyn2-His6tagged
Q: With B1 as the binder, how does the Stoichiometry (α-synuclein [1]) read?
A: The Stoichiometry was 0.99.

Q: And the Stoichiometry (α-synuclein [2])?
A: Its Stoichiometry is 0.93.

Q: And the Kd (α-synuclein [3])?
A: Its Kd is 99 nM.

Q: What about the Stoichiometry (α-synuclein [3]) of the same binder?
A: Its Stoichiometry is 0.87.

Q: What about the Kd (α-synuclein [4]) of the same binder?
A: The Kd was 260 nM.

Q: And the Stoichiometry (α-synuclein [4])?
A: Its Stoichiometry is 0.91.

Q: Does B1 bind (Nb458-… (CA2944))?
A: Result: binds

Q: Does B1 bind (Nb458-gaaEPEA (CA2945) [5])?
A: Result: binds

B2: Nb87 (VHH)
VHH: QVQLQESGGGSVQTGGSLRLSCVASGYSGYMAWFRQAPGKEREGIAAIYRGDKITYYAHSVQGRFTISQANAKNTVYLLMNSLKPEDTAIYYCAARRVVADSPLLSKTYAYWGQGTQVTVSS
Q: What does the source list for B2?
A: binding result (α-synuclein [6]): binds; binding result (β-synuclein): binds

B3: Nb85 (VHH)
VHH: QVQLQESGGGSVQAGGSLRLSCAASGLTYSNYCMGWFRQAPGKAREVVARISTRGIKTYYADSVNGRFTISRDNAKNMVYLQMNSLKPEDTAIYYCAAVIYPGYGDSCPWTTSVNYWGQGTQVTVSS
notes: also called NbSyn85
Q: Does B3 bind (β-synuclein)?
A: Result: binds

B4: biNbSyn2 alkaline phosphatase conjugate (VHH)
chain: QVQLVESGGGSVQAGGSLRLSCAASGIDSSSYCMGWFRQRPGKEREGVARINGLGGVKTAYADSVKDRFTISRDNAENTVYLQMNSLKPEDTAIYYCAAKFSPGYCGGSWSNFGYWGQGTQVTVSSGGGGSGGGSQVQLQESGGGSVQAGGSLRLSCAASGIDSSSYCMGWFRQRPGKEREGVARINGLGGVKTAYADSVKDRFTISRDNAENTVYLQMNSLKPEDTAIYYCAAKFSPGYCGGSWSNFGYWGQGTQVTVSSHHHHHH
notes: also called biNbSyn2-AP; bivalent NbSyn2
Q: Does B4 bind (Nb458-gaaEPEA (CA2945) [7])?
A: Result: binds

B5: Nb86 (VHH)
VHH: QVQLQESGGGSVQAGGSLRLSCALSGYTFRGNRMAWFRQAPGKEREGVARINTGGVNTYVADSVKGRFTISQDNAKNTVYLQMNNLQPEDTAMYFCAADLTGWRPVGFSGYNYWGQGTQVTVSS
Q: Does B5 bind (β-synuclein)?
A: Result: binds

B6: NbSyn1b (VHH)
VHH: DVQLVESGGGSVQAGGSLRLSCAPSGLNASSYCMGWFRQSPGKEREGVARINGNAGIKTAYADSVKDRFTLSRDNAKNTVYLQMNSLKAEDSAMYYCAAKSSPGYCGGNWDNFGYWGQGTQVTVSS
Q: Does B6 bind (α-synuclein [8])?
A: Result: binds

B7: NbSyn1a-mKO1 (VHH)
VHH: EVQLVESGGGSVQAGGSLSLACAPSGLNASSYCMGWFRQSPGKEREGVARINGNAGIKTAYADSVKDRFTLSRDNAKNTVYLQMNSLKAEDSAIYFCAAKSSPGYCGGNWDNFGYWGQGTQVTVSS
notes: not shown: mKO1, mKusabira orange fluorescent protein
Q: Does B7 bind (Rev-[…])?
A: Result: binds

B8: NbSyn1a-GFP (VHH)
VHH: EVQLVESGGGSVQAGGSLSLACAPSGLNASSYCMGWFRQSPGKEREGVARINGNAGIKTAYADSVKDRFTLSRDNAKNTVYLQMNSLKAEDSAIYFCAAKSSPGYCGGNWDNFGYWGQGTQVTVSS
Q: Does B8 bind (Rev-[…])?
A: Result: binds

B9: NbSyn1c (VHH)
VHH: QVQLVESGGGSVQAGGSLRLSCAPLGLNASSYCMGWFRQSPGKEREGVARINGNAGIKTAYADSVKDRFTLSRDNAKNTVYLQMNSLKAEDSAMYYCAAKSSPGYCGGNWDNFGYWGQGTQVTVSS
Q: Does B9 bind (α-synuclein [8])?
A: Result: binds

B10: NbSyn1a (VHH)
VHH: EVQLVESGGGSVQAGGSLSLACAPSGLNASSYCMGWFRQSPGKEREGVARINGNAGIKTAYADSVKDRFTLSRDNAKNTVYLQMNSLKAEDSAIYFCAAKSSPGYCGGNWDNFGYWGQGTQVTVSS
Q: Does B10 bind (α-synuclein [8])?
A: Result: binds
